Two molecules from patent publication US20060159681A1 (FUNCTIONAL NEUROSCIENCE, published 2006) can be followed below.

One experiment concerns the target Hsp70 (UniProt P0DMV8 1-641). Nature of the experiment: co-immunoprecipitation from transfected HEK293T lysate. The procedure: (§1) Samples were harvested in lysis-buffer (50 mM Tris-HCl pH 7.4, 150 mM NaCl, 2 mM EDTA, 1% Triton X-100) supplemented with protease inhibitors (Roche). For complete solubilization of the pellet in synphilin ubiquitinylation experiments boiling lysis-buffer with 1% SDS was used. IPs were performed overnight followed by incubation with Protein G sepharose beads (Amersham). PDAs were performed with equimolar amounts of GST- and His-fusion proteins for 1 hr (4° C.). Beads were washed once with lysis-buffer and three times with PBS (pH 7.4).
Therefore, it was tested whether BAG5 may associate with itself by co-transfecting N-terminus GFP-tagged BAG5 (GFP-BAG5) with FLAG-BAG5 in HEK293T cells. […] Indeed, both GFP-BAG5 and GFP-BAG5(DARA) co-immunoprecipitated with FLAG-BAG5(DARA) (FIG. 3E, lane 4 and 6, respectively). It was also confirmed that Hsp70 co-immunoprecipitated with FLAG-BAG5 and not FLAG-BAG5(DARA) (FIG. 3E, lanes 1, 3 and 5 vs. 2, 4 and 6). […] Similar to results from FIG. 3E, GST-BAG5 and GST-BAG5(DARA) interacted with both GFP-BAG5 and GFP-BAG5(DARA), whereas only GST-BAG5 interacted with Hsp70 (FIG. 3F). […] Therefore complexes of BAG5 which contained BAG5(DARA) were unable to bind Hsp70 and inhibited BAG5 activity.

Experiment [1] concerns the target T1, endogenous Hsp70 in human brain lysate (human, UniProt P0DMV8 2-641).
T1 construct: Native protein in tissue lysate, detected with a monoclonal anti-Hsp70 antibody
As to the kind of experiment: GST pull-down from human brain SNpc lysate.

The next experiment deals with T2, His-Hsp70 (human, UniProt P0DMV8 1-641).
T2 construct: Purified from E. coli (pDEST17) for the pull-down assays; also called full-length Hsp70; not shown: N-terminal hexa-histidine tag from a pDEST vector
T2 sequence (P0DMV8 whole entry): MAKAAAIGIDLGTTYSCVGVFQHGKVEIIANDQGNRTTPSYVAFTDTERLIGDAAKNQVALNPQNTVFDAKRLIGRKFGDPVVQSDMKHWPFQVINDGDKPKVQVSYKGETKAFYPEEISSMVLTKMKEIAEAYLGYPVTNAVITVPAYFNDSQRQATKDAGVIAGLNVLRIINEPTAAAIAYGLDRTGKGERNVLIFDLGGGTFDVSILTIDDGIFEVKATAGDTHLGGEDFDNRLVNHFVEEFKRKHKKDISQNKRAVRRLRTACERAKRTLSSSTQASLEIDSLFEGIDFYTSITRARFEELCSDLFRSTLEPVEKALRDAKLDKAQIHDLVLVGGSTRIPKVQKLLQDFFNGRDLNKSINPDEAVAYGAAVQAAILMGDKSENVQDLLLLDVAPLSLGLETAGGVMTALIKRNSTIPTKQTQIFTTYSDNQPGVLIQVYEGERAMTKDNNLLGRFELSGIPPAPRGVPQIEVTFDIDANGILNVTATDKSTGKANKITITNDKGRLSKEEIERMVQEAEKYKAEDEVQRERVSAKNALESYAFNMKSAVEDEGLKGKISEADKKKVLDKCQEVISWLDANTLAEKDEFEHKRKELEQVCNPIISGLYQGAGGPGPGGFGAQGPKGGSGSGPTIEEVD
Nature of the experiment: in vitro GST pull-down. The procedure: as §1
To further examine the nature of the association between parkin, Hsp70 and BAG5, in vitro pull-down experiments using GST-Hsp70, GST-BAG5, or GST-BAG5(DARA) with recombinant N-terminus His-tagged parkin were used. […] Thus, BAG5 interacted directly with parkin in the absence of Hsp70.

Sequence of Hsp70 (P0DMV8 whole entry, the tested form may be a part): as the sequence (P0DMV8 whole entry) above
T1 sequence (P0DMV8 2-641): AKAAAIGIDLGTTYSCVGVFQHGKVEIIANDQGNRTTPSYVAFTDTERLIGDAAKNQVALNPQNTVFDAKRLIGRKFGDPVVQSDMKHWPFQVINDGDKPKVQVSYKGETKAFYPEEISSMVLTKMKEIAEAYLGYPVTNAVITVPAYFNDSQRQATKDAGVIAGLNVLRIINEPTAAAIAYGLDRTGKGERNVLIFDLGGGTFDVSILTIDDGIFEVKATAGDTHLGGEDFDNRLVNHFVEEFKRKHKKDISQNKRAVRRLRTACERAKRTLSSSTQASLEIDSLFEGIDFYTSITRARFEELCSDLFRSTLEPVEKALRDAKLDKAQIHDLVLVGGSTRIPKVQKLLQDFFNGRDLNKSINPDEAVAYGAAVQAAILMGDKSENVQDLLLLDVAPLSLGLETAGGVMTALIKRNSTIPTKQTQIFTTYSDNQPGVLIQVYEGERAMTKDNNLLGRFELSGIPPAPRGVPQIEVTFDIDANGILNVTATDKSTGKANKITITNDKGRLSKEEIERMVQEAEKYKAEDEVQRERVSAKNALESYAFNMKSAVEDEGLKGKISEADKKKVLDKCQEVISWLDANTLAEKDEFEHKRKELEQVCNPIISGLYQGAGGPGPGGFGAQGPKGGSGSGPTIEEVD

B1: FLAG-BAG5(DARA) (other, not shown: small tags and cut ends)
chain: MDMGNQHPSISRLQEIQKEVKSVEQQVIGFSGLSDDKNYKKLERILTKQLFEIASVDTEGKGDIQQAAKRAAQETERLLKELEQNANHPHRIEIQNIFEEAQSLVREKIVPFYNGGNCVTDEFEEGIQDIILRLTHVKTGGKISLRKARYHTLTKICAVQEIIEDCMKKQPSLPLSEDAHPSVAKINFVMCEVNKARGVLIALLMGVNNNETCRHLSCVLSGLIADLAALDVCGRTEIRNYAREVVEDINKLLKYLDLEEEADTTKAFDLRQNHSILKIEKVLKRMREIKNELLQAQNPSELYLSSKTELQGLIGQLAEVSLEKNPCIREAARRAVIEVQTLITYIDLKEALEKRKLFACEEHPSHKAVWNVLGNLSEIQGEVLSFDGNRTDKNYIRLEELLTKQLLALAAVDPQGEEKCKAAAKQAVRLAQNILSYLDLKSDEWEY
notes: Expressed by transfection in HEK293T cells
As to B1, the binding result with Hsp70 is reported as “no binding”.

B2: GST-BAG5(DARA) (other, not shown: a dimerising Fc or GST; large carriers; small tags and cut ends)
chain: B1 chain
notes: also called mutant BAG5(DARA)
For B2, the binding result (in experiment [1]; in the experiment with His-Hsp70) was “no binding” throughout.
